Data reported in patent CN111333732A (UNIV CHINA PHARMA, dated 2020).

Legend:
[1] = biological target: T1, BCMA-Fc蛋白 (human, UniProt Q02223 1-54); assay: SPR, Biacore X100, BCMA-Fc captured by anti-human Fc on CM5, 2A9-MICA as analyte
T1 construct: Captured on a CM5 chip through anti-human Fc antibody for SPR; also called BCMA抗原; not shown: Fc part, captured by anti-human Fc antibody
T1 sequence (looked up): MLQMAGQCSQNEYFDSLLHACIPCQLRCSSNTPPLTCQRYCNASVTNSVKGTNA

[2] = biological target: T2, NKG2D-Fc蛋白 (UniProt P26718 78-216, limits assumed); assay: SPR, Biacore X100, NKG2D-Fc captured by anti-human Fc on CM5, 2A9-MICA as analyte
T2 construct: Captured on a CM5 chip through anti-human Fc antibody for SPR; not shown: Fc part, captured by anti-human Fc antibody
T2 sequence (looked up): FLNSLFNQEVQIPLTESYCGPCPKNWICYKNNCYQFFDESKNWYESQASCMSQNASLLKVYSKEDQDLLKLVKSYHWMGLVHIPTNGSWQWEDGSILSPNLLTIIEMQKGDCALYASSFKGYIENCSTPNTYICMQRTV

[3] = biological target: T1, BCMA-Fc蛋白; assay: SPR, Biacore X100, BCMA-Fc captured by anti-human Fc on CM5, 2A9 as analyte

B1: 双特异性抗体2A9-MICA (anti-human BCMA scFv 2A9 fused to human MICA extracellular regions 1-3) (bispecific antibody)
chain: MAEVQLQQSGAELVKPGASVKLSCTASGFNIKDTYMHWVKQRPEQGLEWIGRIDPANGNTKYDPKFQGKATITADTSSNTAYLQLSSLTSEDTAVYYCARWVYWGQGTTLTVSTGGGGSDVVMTQSPSSMYASLGERVTITCKASQDINSYLSWFQQKPGKSPKTLIYRANRLVDGVPSRFSGSGSGQDYSLTISSLEYEDMGIYYCLQYDEFPYTFGGGTKLEIKRGSGGGGSEPHSLRYNLTVLSWDGSVQSGFLAEVHLDGQPFLRYDRQKCRAKPQGQWAEDVLGNKTWDRETRDLTGNGKDLRMTLAHIKDQKEGLHSLQEIRVCEIHEDNSTRSSQHFYYDGELFLSQNLETEEWTVPQSSRAQTLAMNVRNFLKEDAMKTKTHYHAMHADCLQELRRYLESGVVLRRTVPPMVNVTRSEASEGNITVTCRASSFYPRNIILTWRQDGVSLSHDTQQWGDVLPDGNGTYQTWVATRICRGEEQRFTCYMEHSGNHSTHPVPSGKVLVLQSHW
notes: also called 抗体融合蛋白2A9-MICA; rG7S-MICA
With B1 the Kd [1] was 76 nM and the Kd [2] was 3470 nM.

B2: 抗人BCMA单链抗体2A9 (scFv)
scFv: ASMAEVQLQQSGAELVKPGASVKLSCTASGFNIKDTYMHWVKQRPEQGLEWIGRIDPANGNTKYDPKFQGKATITADTSSNTAYLQLSSLTSEDTAVYYCARWVYWGQGTTLTVSTGGGGSDVVMTQSPSSMYASLGERVTITCKASQDINSYLSWFQQKPGKSPKTLIYRANRLVDGVPSRFSGSGSGQDYSLTISSLEYEDMGIYYCLQYDEFPYTFGGGTKLEIKR
notes: Parental scFv from phage display; also called rG7S
Binder B2 has a Kd [3] of 34.6 nM.
